Measurements reported in US20150225464A1 (Affibody, published 2015).

Assays:
rat serum albumin [1] = biological target: T1, rat serum albumin (rat, UniProt P02770 25-608); test: SPR Biacore2000 sensorgrams
T1 construct: Bought; also called RSA
Protocol: (§1) The binding of the ABD variants obtained in Example 1 to human serum albumin (HSA), rat serum albumin (RSA), cynomolgus serum albumin (CSA) and mouse serum albumin (MSA) was analyzed by surface plasmon resonance using a Biacore2000 instrument.

mouse serum albumin [2] = biological target: T2, mouse serum albumin (mouse, UniProt P07724 25-608); test: SPR Biacore2000 sensorgrams
T2 construct: Bought; also called MSA
Protocol: as §1

human serum albumin [3] = biological target: T3, human serum albumin (human, UniProt P02768 25-609); test: SPR Biacore2000, HSA immobilized on CM-5, polypeptide as analyte, 1:1 Langmuir fit, relative values
T3 construct: Bought recombinant product; also called HSA; Albucult
T3 sequence (P02768 25-609 limits assumed): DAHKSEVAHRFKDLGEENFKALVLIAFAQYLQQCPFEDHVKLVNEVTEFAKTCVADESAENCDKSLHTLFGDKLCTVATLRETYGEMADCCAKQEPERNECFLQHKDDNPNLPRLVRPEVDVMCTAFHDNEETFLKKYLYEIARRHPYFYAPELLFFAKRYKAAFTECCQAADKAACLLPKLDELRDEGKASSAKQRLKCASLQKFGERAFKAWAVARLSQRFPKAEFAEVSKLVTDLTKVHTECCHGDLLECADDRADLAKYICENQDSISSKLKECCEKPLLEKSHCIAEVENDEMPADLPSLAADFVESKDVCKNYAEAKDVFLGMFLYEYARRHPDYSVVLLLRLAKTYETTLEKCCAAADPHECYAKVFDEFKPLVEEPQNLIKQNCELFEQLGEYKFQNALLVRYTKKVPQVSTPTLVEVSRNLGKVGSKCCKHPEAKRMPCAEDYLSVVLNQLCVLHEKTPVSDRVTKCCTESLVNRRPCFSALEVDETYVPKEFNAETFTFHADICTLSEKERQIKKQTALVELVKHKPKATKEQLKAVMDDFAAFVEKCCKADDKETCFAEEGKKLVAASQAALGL
Protocol: (§2) Biosensor analysis on a Biacore2000 instrument (GE Healthcare) was performed with HSA (Albucult®, Novozymes), CSA (purified in-house from cynomolgus serum), RSA (Sigma-Aldrich, Cat. No. A6272) and MSA (Sigma-Aldrich, Cat. No. A3559) immobilized by amine coupling onto the carboxylated dextran layer of the surfaces of CM-5 chips (research grade; GE Healthcare) according to the manufacturer's recommendations.
(§3) ABD variants were used as analytes and were injected in duplicates over the chip at three analyte concentrations (2.5, 10 and 40 nM). The association phase was 5 min followed by a long dissociation phase (60 min) to account at least partially for the slow off-rate of the ABD variants. […] Therefore, all KD's are given as relative KD values only.
(§4) After subtraction of reference surface and buffer injection, curves were fitted to a 1:1 (Langmuir) binding model using BlAevaluation software with correction for mass transfer and with RUmax set as a local parameter.

human serum albumin [4] = biological target: T3, human serum albumin; test: SPR Biacore2000, albumin immobilized on CM-5, polypeptide as analyte, relative KD
Protocol: as §2, §3, §4

rat serum albumin [5] = biological target: T1, rat serum albumin; test: as above
Protocol: as §2, §3, §4

cynomolgus serum albumin = biological target: T4, cynomolgus serum albumin (cynomolgus); test: as above
T4 construct: Purified from serum; also called CSA
T4 sequence (A2V9Z4 25-608): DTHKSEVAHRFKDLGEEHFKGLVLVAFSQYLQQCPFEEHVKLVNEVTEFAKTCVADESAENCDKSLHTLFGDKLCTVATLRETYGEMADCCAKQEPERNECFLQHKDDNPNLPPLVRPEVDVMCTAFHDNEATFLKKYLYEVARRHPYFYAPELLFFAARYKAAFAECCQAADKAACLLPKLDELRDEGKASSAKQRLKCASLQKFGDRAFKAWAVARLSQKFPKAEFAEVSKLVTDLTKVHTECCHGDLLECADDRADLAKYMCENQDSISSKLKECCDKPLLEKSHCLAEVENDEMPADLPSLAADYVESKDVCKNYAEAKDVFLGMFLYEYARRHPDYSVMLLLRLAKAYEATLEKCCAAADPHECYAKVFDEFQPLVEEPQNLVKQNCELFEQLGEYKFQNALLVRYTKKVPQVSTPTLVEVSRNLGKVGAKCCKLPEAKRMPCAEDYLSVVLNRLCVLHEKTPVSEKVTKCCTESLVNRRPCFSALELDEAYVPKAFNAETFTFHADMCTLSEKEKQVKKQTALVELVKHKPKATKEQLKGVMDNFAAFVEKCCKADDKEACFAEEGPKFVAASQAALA
Protocol: as §2, §3, §4

mouse serum albumin [6] = biological target: T2, mouse serum albumin; test: as above
Protocol: as §2, §3, §4

T1 sequence (P02770 25-608 limits assumed): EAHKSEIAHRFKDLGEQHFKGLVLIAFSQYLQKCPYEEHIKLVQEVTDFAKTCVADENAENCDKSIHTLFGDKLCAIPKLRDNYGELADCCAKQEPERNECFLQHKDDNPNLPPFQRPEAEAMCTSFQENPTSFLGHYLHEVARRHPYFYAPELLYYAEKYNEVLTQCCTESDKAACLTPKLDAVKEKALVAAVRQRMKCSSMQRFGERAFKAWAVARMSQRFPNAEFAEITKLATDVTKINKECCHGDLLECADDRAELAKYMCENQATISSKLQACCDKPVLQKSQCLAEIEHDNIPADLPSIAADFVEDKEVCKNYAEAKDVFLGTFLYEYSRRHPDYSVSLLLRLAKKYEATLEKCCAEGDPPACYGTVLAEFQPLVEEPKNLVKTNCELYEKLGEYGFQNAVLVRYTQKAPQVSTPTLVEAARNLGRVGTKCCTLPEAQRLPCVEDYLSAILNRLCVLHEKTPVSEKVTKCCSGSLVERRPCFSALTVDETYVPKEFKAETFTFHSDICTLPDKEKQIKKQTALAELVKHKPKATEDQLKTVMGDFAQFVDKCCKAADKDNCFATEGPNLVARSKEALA

Binder | binding result (rat serum albumin [1]) | binding result (mouse serum albumin [2]) | Kd (human serum albumin [3]) | koff (human serum albumin [3]) | kon (human serum albumin [3]) | Kd (human serum albumin [4]) | Kd (rat serum albumin [5]) | Kd (cynomolgus serum albumin) | Kd (mouse serum albumin [6])
GSSLAEAKEAANAELDSYGVSDFYKNLIDKAKTVEGVEALKDAILAALP (designed binder, R23N against PEP07843 (position counted on the 46-mer without GSS); Control polypeptide, expressed in E. coli; also called ABD variant; R23N variant of PEP07843) [PEP12379] | binds | binds | 0.014 nM | 2.36e-05 s⁻¹ | 1.7e+06 M⁻¹ s⁻¹ |  |  |  | 
GSSLAEAKEAANAELDSYGVSDFYKKLIDKAKTVEGVEALKDAILAALP (designed binder, Inventive variant; 46 residues with an N-terminal GSS extension; R23K against PEP07843 (position counted on the 46-mer without GSS); Expressed in E. coli; also called ABD variant; R23K variant of PEP07843) [PEP12380] |  |  | 0.0075 nM | 2.62e-05 s⁻¹ | 3.48e+06 M⁻¹ s⁻¹ | 7.5 pM | 9.3 pM | 0.011 nM | 0.117 nM
GSSLAEAKEAANAELDSYGVSDFYKRLIDKAKTVEGVEALKDAILAALP (designed binder, single Arg at position 23 of the 46-mer; GSS extension at the N-terminus; also called ABD variant; control) [PEP07843] |  |  | 0.0067 nM | 2.99e-05 s⁻¹ | 4.49e+06 M⁻¹ s⁻¹ | 6.7 pM | 8.2 pM | 0.0098 nM | 0.087 nM
GSSLAEAKEAANAELDSYGVSDFYKSLIDKAKTVEGVEALKDAILAALP (designed binder, Control polypeptide; 46 residues with an N-terminal GSS extension; R23S against PEP07843 (position counted on the 46-mer without GSS); Expressed in E. coli; also called ABD variant; R23S variant of PEP07843) [PEP12381] | binds | binds | 0.017 nM | 3.08e-05 s⁻¹ | 1.83e+06 M⁻¹ s⁻¹ |  |  |  | 
GSSLAEAKVLANRELDKYGVSDFYKRLINKAKTVEGVEALKLHILAALP (designed binder, also called ABD variant; control polypeptide) [PEP06923] | binds | binds |  |  |  |  |  |  | 
